From paper PMC4205158 (Structure (London, England : 1993), 2008)
Entries after “also recorded” stand apart in the source; their conditions may differ.

Legend:
IRAK1-ki = assay: GST-pulldown of kinase-inactive mutant IRAK1-ki; conditions: qualitative, HEK293T lysates
IRAK1b = assay: GST-pulldown of IRAK1b; conditions: qualitative; HEK293T lysates; kinase-inactive IRAK1b

Molecule | Kd (Rad9(pT192) peptide) | interaction with IRAK1-ki in GST-pulldown (IRAK1-ki) | interaction with IRAK1b in GST-pulldown (IRAK1b)
Purified Pellino2 (from UniProt Q9HAT8 1-420) (natural protein) | > 100 µM |  | 
Pellino2: GST-fusion protein of full-length Pellino2 (human cDNA) (protein, left off: His6, N-terminal, cleaved) MFSPGQEEHCAPNKEPVKYGELVVLGYNGALPNGDRGRRKSRFALYKRPKANGVKPSTVHVISTPQASKAISCKGQHSISYTLSRNQTVVVEYTHDKDTDMFQVGRSTESPIDFVVTDTISGSQNTDEAQITQSTISRFACRIVCDRNEPYTARIFAAGFDSSKNIFLGEKAAKWKNPDGHMDGLTTNGVLVMHPRGGFTEESQPGVWREISVCGDVYTLRETRSAQQRGKLVESETNVLQDGSLIDLCGATLLWRTADGLFHTPTQKHIEALRQEINAARPQCPVGLNTLAFPSINRKEVVEEKQPWAYLSCGHVHGYHNWGHRSDTEANERECPMCRTVGPYVPLWLGCEAGFYVDAGPPTHAFTPCGHVCSEKSAKYWSQIPLPHGTHAFHAACPFCATQLVGEQNCIKLIFQGPID |  | are not precipitated; also recorded: do not interact | are not precipitated; also recorded: do not interact
